The values below come from publication PMC6109178.

For assay [1], the target named is Mouse P-gp-ECL13&4-h19 (mouse) (UniProt P21447). Briefly: flow cytometry on cells; apparent Kd; HeLa cells expressing the P-gp variant (300,000 cells/assay) stained with UIC2 at 0.01 to 3 µg per 100,000 cells for 30 min at 37 °C; GraphPad Prism. (A flow cytometer gives signals particle by particle.)
Assay [2] has as its target Mouse P-gp-ECL1&4-h18 (mouse) (UniProt P21447). The assay is described as above.
For assay [3], the target named is Mouse P-gp-ECL13&4-h19 (mouse) (UniProt P21447). Description: flow cytometry on cells; UIC2 shift assay: HeLa cells incubated 5 min at 37 °C with DMSO or 20 µM cyclosporine A before UIC2 at saturated concentration (3 µg/100,000 cells), 30 min; FITC-labeled anti-mouse secondary antibody.
Assay [4] has as its target Mouse P-gp-ECL1&4-h18 (mouse) (UniProt P21447). The description is as above.

For UIC2 monoclonal antibody, the Kd in assay [1] was found to be 5.1 nM; in assay [2], 11.7 nM. Besides, the fold increase of UIC2 binding after 20 µM cyclosporine A against DMSO in assay [3] was in the range of 1.2 to 1.4 fold; in assay [4], 1.4 to 1.7 fold.
